In article PMC9645528, “Structural and functional basis of mammalian microRNA biogenesis by Dicer”:

Columns and labels:
[1] = target: DicerO (oocyte isoform lacking HEL1) (Mus musculus, UniProt Q8R418-2 1-1678); experiment: EMSA; EMSA conditions not in the material; protein storage/SEC buffer 50 mM Tris pH 8.0, 150 mM NaCl, 1 mM DTT, 2 mM MgCl2 (2 mM CaCl2 for WT Dicer structural work); settings: protein: recombinant, tags: N-term TwinStrep-HA-TEV, C-term TEV-2xFLAG-8xHis, hairpin, GCAA tetraloop, 3' overhang UU
Chain of DicerO (oocyte isoform lacking HEL1) (Q8R418 other isoform, or with tags, fused parts or gaps): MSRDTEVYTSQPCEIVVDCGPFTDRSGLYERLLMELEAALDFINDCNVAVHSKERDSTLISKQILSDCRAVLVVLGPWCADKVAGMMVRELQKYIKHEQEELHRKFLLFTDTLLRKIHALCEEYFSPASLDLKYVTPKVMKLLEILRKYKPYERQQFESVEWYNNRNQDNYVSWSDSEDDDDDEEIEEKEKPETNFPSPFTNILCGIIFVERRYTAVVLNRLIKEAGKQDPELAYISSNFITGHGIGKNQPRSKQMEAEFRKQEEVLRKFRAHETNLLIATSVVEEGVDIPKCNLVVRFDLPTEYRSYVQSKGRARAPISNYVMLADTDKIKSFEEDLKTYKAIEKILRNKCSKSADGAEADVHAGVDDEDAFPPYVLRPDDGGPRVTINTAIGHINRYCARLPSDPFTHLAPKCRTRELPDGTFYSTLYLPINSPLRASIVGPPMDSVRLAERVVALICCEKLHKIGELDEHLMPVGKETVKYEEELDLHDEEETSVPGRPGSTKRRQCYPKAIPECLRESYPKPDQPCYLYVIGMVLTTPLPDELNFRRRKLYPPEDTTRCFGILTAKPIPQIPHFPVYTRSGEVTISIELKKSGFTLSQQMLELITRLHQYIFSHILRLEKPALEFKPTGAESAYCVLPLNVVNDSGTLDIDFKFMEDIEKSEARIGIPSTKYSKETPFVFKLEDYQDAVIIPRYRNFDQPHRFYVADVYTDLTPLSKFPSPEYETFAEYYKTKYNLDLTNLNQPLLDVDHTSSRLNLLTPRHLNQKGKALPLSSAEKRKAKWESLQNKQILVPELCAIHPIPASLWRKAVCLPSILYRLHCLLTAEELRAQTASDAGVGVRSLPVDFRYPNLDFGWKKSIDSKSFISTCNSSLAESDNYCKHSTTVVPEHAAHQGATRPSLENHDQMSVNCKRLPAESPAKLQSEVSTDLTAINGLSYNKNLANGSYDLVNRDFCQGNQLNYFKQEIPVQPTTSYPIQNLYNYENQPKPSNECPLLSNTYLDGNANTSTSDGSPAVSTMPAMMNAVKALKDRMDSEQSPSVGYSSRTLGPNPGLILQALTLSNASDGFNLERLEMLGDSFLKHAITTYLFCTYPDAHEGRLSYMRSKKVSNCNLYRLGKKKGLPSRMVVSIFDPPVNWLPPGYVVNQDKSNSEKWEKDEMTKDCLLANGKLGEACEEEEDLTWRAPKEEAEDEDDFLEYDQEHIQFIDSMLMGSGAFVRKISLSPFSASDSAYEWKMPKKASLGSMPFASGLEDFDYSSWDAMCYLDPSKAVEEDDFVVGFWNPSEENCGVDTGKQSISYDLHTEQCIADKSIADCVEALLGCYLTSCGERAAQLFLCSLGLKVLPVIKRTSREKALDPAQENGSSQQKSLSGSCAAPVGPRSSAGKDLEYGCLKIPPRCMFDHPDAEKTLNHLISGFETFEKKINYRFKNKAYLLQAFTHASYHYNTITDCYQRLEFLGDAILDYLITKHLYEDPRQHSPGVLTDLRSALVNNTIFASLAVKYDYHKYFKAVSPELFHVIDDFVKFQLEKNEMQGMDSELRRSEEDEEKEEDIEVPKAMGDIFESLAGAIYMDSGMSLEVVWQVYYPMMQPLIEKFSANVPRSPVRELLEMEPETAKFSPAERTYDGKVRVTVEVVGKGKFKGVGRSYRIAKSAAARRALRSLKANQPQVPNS

Dicer (full-length) = Dicer (full-length) (Mus musculus, UniProt Q8R418 1-1916); experiment: as above; settings: protein: recombinant, tags: N-term TwinStrep-HA-TEV, C-term TEV-2xFLAG-8xHis, hairpin, GCAA tetraloop, 3' overhang UU
Chain of Dicer (full-length) (Q8R418 whole entry): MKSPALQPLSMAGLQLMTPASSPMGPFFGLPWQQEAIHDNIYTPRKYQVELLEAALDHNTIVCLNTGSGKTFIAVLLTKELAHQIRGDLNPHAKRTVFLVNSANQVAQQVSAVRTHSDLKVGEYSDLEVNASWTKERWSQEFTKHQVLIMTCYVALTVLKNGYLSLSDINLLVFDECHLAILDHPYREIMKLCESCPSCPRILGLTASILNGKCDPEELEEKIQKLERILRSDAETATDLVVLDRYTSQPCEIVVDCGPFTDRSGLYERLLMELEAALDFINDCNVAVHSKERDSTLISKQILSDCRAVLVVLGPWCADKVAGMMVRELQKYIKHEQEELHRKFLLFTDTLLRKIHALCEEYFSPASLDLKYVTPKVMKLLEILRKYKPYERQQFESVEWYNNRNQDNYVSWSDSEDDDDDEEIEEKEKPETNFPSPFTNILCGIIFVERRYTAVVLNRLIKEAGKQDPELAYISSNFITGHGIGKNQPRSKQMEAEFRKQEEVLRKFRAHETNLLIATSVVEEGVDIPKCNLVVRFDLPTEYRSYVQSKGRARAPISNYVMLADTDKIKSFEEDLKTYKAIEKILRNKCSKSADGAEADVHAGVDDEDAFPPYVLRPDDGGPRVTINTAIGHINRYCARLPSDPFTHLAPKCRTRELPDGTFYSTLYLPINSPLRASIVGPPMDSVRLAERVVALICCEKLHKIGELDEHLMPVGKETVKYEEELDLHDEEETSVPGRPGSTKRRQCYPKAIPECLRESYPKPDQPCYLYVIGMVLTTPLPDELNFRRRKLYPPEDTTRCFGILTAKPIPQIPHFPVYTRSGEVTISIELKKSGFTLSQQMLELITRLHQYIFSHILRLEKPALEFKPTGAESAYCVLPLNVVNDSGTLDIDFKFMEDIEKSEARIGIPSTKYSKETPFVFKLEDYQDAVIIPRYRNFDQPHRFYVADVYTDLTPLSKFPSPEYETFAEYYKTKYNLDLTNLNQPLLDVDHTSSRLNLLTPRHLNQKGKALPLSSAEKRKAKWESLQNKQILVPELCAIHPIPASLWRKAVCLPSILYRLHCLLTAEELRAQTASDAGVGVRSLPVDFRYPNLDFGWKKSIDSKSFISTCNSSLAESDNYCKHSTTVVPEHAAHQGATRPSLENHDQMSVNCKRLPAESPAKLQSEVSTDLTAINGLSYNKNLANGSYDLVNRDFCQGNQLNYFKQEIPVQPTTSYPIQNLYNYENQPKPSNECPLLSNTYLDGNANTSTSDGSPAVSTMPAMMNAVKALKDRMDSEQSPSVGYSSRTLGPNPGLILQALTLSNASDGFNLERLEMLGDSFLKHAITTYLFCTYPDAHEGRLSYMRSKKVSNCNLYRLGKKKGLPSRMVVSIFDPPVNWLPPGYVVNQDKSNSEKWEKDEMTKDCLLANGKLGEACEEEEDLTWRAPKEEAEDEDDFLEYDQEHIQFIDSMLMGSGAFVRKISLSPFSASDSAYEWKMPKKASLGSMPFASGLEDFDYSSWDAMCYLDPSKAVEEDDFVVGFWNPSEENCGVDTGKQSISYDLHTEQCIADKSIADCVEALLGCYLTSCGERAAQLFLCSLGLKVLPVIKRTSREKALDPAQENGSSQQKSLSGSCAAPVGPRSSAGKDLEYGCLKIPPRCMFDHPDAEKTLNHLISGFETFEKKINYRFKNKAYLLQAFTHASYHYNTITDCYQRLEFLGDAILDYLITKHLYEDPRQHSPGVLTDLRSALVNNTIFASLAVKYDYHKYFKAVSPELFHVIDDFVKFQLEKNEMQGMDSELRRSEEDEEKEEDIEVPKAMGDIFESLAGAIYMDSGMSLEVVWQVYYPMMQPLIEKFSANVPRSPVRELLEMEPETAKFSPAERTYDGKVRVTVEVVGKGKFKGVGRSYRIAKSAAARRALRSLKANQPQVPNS

| Binder | Kd ([1]; 42 bp stem) [nM] | Kd (Dicer (full-length); 42 bp stem) [nM] | Kd ([1]; 30 bp stem) [nM] | Kd (Dicer (full-length); 30 bp stem) [nM] |
| --- | --- | --- | --- | --- |
| 42bp stem-loop (structured_RNA) RNA: AGAGGAGAGGGACAAUAGAGGAGAGGGACAAUCAUAAAGGCCGCAAGGCCUUUAUGAUUGUCCCUCUCCUCUAUUGUCCCUCUCCUCUUU | 55 ± 4 | 115 ± 20 | – | – |
| 30bp stem-loop (structured_RNA) RNA: AGAGGAGAGGGACAAUCAUAAAGGCCACUCGCAAGAGUGGCCUUUAUGAUUGUCCCUCUCCUCUUU | – | – | 79 ± 7 | 120 ± 27 |
